Source: patent US20260069728A1, “MULTI-TARGETING COMPOUND AND USE THEREOF” (Chengdu Shetai Medical Technology Co., Ltd., priority 2023, published 2026)
Like-named read-outs stand apart in the source and are kept apart here. *1 amine or outer side, *2 acyl side, *3 side chain or, on linkers, in order; H or OH if unused. Where a SMILES comes first, the peptide text is derived from it. Bridges are numbered along the chain shown (N, C = ends). [ ]: non-standard residue; d: D form. The star is where a group is joined. X1 = N#C[C@@H]1CC(F)(F)CN1C(=O)CNC(=O)c1ccnc2ccc(OCCCN3CCN(*)CC3)cc12; DOTA = O=C(O)CN1CCN(CC(=O)O)CCN(CC(=O)*)CCN(CC(=O)O)CC1; 2Nal = N[C@@H](Cc1ccc2ccccc2c1)C(=O)O; Cit = NC(=O)NCCC[C@H](N)C(=O)O; Suc = O=C(CCC(=O)[*:2])[*:1]; AEEA = NCCOCCOCC(=O)O

Assay: Stability of radioligands in PBS buffer (radio-HPLC)
Format: physicochemical
Experimental: The purpose of this experiment was to test the stability of the radioligands under buffer conditions simulating the physiological environment. This stability is a prerequisite for further animal experiments.
(§1) 1. ^68Ga-SDYD01: ^68Ga-SDYD01 was added to PBS buffer (pH=7.4) and incubated at 37° C. The mixture samples were taken for radio-HPLC analysis after 0.5 hours, 1 hour, and 2 hours of incubation. The stability of ^68Ga-SDYD01 in PBS buffer: the radiochemical purities of ^68Ga-SDYD01 after incubation in PBS for 0.5 hours, 1 hour, and 2 hours were 98%, 97%, and 97%, respectively (FIG. 4).
(§2) 2. ^177Lu-SDYD01: ^177Lu-SDYD01 was added to PBS buffer (pH=7.4) and incubated at 37° C. The mixture samples were taken for radio-HPLC analysis after 24 hours, 48 hours, and 120 hours of incubation. The stability of ^177Lu-SDYD01 in PBS buffer: the radiochemical purities of ^177Lu-SDYD01 after incubation in PBS for 24 hours, 48 hours, and 120 hours were 97%, 96%, and 94%, respectively (FIG. 5).
as §1, with “^68Ga-SDYD02: ^68Ga-SDYD02” for “^68Ga-SDYD01: ^68Ga-SDYD01”, “^68Ga-SDYD02” for “^68Ga-SDYD01”, “96%, 95%” for “98%, 97%,”, “93%,” for “97%,”, “10).” for “4).”
as §2, with “^177Lu-SDYD02: ^177Lu-SDYD02” for “^177Lu-SDYD01: ^177Lu-SDYD01”, “^177Lu-SDYD02” for “^177Lu-SDYD01”, “95%, 91%” for “97%, 96%,”, “87%,” for “94%,”, “11).” for “5).”
as §1, with “1. ^68Ga-SDYD05: ^68Ga-SDYD05” for “1. ^68Ga-SDYD01: ^68Ga-SDYD01”, “of ^68Ga-SDYD05” for “of ^68Ga-SDYD01”, “98%, 96%” for “98%, 97%,”, “and 95%,” for “and 97%,”, “(FIG. 16).” for “(FIG. 4).”
as §2, with “^177Lu-SDYD05: ^177Lu-SDYD05” for “^177Lu-SDYD01: ^177Lu-SDYD01”, “^177Lu-SDYD05” for “^177Lu-SDYD01”, “97%, 96% and” for “97%,”, “96%,” for “96%, and 94%,”, “17).” for “5).”
1. ^68Ga-SDYD06: ^68Ga-SDYD06 was added to PBS buffer (pH=7.4) and incubated at 37° C. The mixture samples were taken for radio-HPLC analysis after 0.5, 1, and 2 hours of incubation. The stability of ^68Ga-SDYD06 in PBS buffer: the radiochemical purities of ^68Ga-SDYD06 after incubation in PBS for 0.5 hours, 1 hour, and 2 hours were 96%, 94% and 93%, respectively (FIG. 22).
2. ^177Lu-SDYD06: ^177Lu-SDYD06 was added to PBS buffer (pH=7.4) and incubated at 37° C. The mixture samples were taken for radio-HPLC analysis after 24 hours, 48 hours, and 120 hours of incubation.
1. ^68Ga-SDYD03: ^68Ga-SDYD03 was added to PBS buffer (pH=7.4) and incubated at 37° C. The mixture samples were taken for radio-HPLC analysis after 0.5 hours, 1 hour, and 2 hours of incubation. The stability of ^68Ga-SDYD03 PBS in PBS buffer: the radiochemical purities of ^68Ga-SDYD03 after incubation in PBS for 0.5 hours, 1 hour, and 2 hours were 96%, 96% and 95%, respectively (FIG. 27).
as §2, with “^177Lu-SDYD03: ^177Lu-SDYD03” for “^177Lu-SDYD01: ^177Lu-SDYD01”, “^177Lu-SDYD03” for “^177Lu-SDYD01”, “are 99%, 96%” for “were 97%, 96%,”, “28). […]” for “5).”

[1] = PBS buffer pH=7.4, 37° C., 0.5 hours
[2] = PBS buffer pH=7.4, 37° C., 1 hour
[3] = PBS buffer pH=7.4, 37° C., 2 hours

Row | SMILES | stability in PBS buffer (in words) (PBS buffer pH=7.4, 37° C.) | radiochemical purity after incubation in PBS [1] [%] | radiochemical purity after incubation in PBS [2] [%] | radiochemical purity after incubation in PBS [3] [%] | stability in PBS buffer (in words)
1 | CCCCCC(=O)N[C@H]1CSCc2cc(CSCCNC(=O)[C@H](CCCCNC(=O)CN3CCN(CC(=O)O)CCN(CC(=O)O)CCN(CC(=O)O)CC3)NC(=O)COCCOCCNC(=O)COCCOCCNC(=O)CCN3C(=O)CC(SCCNC(=O)CCC(=O)NCc4ccc(NC(=O)COCC(=O)N[C@H](Cc5ccccc5)C(=O)N[C@@H](CCC(N)=O)C(=O)N[C@@H](Cc5c[nH]c6ccccc56)C(=O)N[C@@H](C)C(=O)N[C@H](C(=O)NCC(=O)N[C@@H](Cc5c[nH]cn5)C(=O)NC(CC(C)C)CC(C)C)C(C)C)cc4)C3=O)cc(c2)CSC[C@@H](C(=O)O)NC(=O)[C@H](Cc2ccccc2)NC(=O)[C@H](CCC(N)=O)NC(=O)C([C@@H](C)O)NC(=O)[C@@H]2CCCN2C(=O)[C@@H]2CCCN2C1=O (some centres unmarked) [^68Ga-SDYD04, metal not drawn] | quite stable in PBS buffer | 97 | 97 | 95 | 
2 | N#C[C@@H]1CC(F)(F)CN1C(=O)CNC(=O)c1ccnc2ccc(OCCCN3CCN(C(=O)CCC(=O)N[C@@H](CCCCNC(=O)CN4CCN(CC(=O)O)CCN(CC(=O)O)CCN(CC(=O)O)CC4)C(=O)NCCOCCOCC(=O)NCCOCCOCC(=O)N[C@@H](CCCNC(=N)N)C(=O)N[C@@H](CCCNC(=N)N)C(=O)N[C@@H](Cc4ccc5ccccc5c4)C(=O)N[C@H]4CSSC[C@@H](C(=O)N[C@@H](CCCNC(=N)N)C(N)=O)NC(=O)[C@H](CCCNC(N)=O)NC(=O)[C@H](CCCNC(=N)N)NC(=O)[C@H](Cc5ccc(O)cc5)NC(=O)[C@@H]5CCCN5C(=O)[C@H](CCCCN)NC(=O)[C@H](CCCCN)NC(=O)[C@H](CCCNC(N)=O)NC(=O)[C@H](Cc5ccc(O)cc5)NC4=O)CC3)cc12 [^68Ga-SDYD01, metal not drawn] ({X1-Suc}-K(DOTA)[AEEA][AEEA]RR[2Nal]CY[Cit]KKPYR[Cit]CR-NH2; disulfide 7-16) |  | 98 | 97 | 97 | quite stable in PBS buffer
